Laboratory results: paper doi:10.1101/2022.02.11.480038
pKd: −log10 of the molar value.

What was measured:
[1] = biological target: GABARAP K48A mutant (human) (UniProt O95166); assay: ITC
[2] = biological target: GABARAP Y5F H9A mutant (human) (UniProt O95166); assay: ITC

pKd [1]: 5.70
pKd [2]: 5.70
Substance: phosphorylated TEX264 LIR (residues 269-278 with p-S271,p-S272) (peptide)
